Data taken from patent US20050080014A1 (Amgen, published 2005).
Where two headings read alike, the source gives them in different places. Values belong to the molecule of their own block, whether it stands above or below them. Groups on a side chain read outwards from the residue. No end group written: not given here. maleimide = maleimide group of MeO-PEG-maleimide, which reacts with the Cys side-chain thiol

Target: T1, human mpl receptor (human, UniProt P40238 26-635)
T1 sequence (looked up): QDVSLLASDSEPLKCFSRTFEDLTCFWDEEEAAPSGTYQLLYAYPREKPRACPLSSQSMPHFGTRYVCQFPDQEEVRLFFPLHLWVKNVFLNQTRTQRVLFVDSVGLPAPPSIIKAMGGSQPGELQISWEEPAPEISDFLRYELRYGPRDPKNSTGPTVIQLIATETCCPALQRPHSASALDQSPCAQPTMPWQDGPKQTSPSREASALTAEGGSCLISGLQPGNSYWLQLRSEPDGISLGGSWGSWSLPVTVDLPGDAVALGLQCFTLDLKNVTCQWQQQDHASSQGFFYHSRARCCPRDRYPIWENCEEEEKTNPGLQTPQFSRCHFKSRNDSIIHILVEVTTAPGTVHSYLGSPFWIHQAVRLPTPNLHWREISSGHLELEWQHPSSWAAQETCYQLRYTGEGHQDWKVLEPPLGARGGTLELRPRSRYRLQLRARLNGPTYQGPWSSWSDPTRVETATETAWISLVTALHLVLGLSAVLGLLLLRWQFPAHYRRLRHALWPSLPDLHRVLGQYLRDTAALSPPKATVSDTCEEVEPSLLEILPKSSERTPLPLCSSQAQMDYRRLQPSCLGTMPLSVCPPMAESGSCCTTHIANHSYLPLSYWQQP
Assay: cell-based or functional assay

Molecule: IEGPTLRQWLAARAGIEGPTLRQWLAARA [TMP-(Gly)n-TMP, n = 1]
Relative Potency (EC50), proliferation of murine 32D cells transfected with human mpl receptor: 4 log units of activity (1 unit is approximately 10-fold)

Molecule: IEGPTLRQWLAARAGGIEGPTLRQWLAARA [TMP-(Gly)n-TMP, n = 2]
Relative Potency (EC50), proliferation of murine 32D cells transfected with human mpl receptor: 4 log units of activity (1 unit is approximately 10-fold)

Molecule: IEGPTLRQALAARAGGGGGGGGIEGPTLRQALAARA [IEGPTLRQALAARA-GGGGGGGG-IEGPTLRQALAARA (SEQ ID NO. 13)]
Relative Potency (EC50), proliferation of murine 32D cells transfected with human mpl receptor: 0.5 log units of activity (1 unit is approximately 10-fold)

Molecule: IEGPTLRQWLAARA [TMP monomer (SEQ ID NO: 1)]
Relative Potency (EC50), proliferation of murine 32D cells transfected with human mpl receptor: 1 log units of activity (1 unit is approximately 10-fold)

Molecule: IEGPTLRQWLAARAGGGGGIEGPTLRQWLAARA [TMP-(Gly)n-TMP, n = 5]
Relative Potency (EC50), proliferation of murine 32D cells transfected with human mpl receptor: 4 log units of activity (1 unit is approximately 10-fold)

Molecule: IEGPTLRQWLAARAGGGGIEGPTLRQWLAARA [TMP-(Gly)n-TMP, n = 4]
Relative Potency (EC50), proliferation of murine 32D cells transfected with human mpl receptor: 4 log units of activity (1 unit is approximately 10-fold)

B2: TMP C-C dimer (SEQ ID NO: 2) (peptide)
peptide: IEGPTLRQWLAARA
modifications: also: dimer of two TMP chains joined at C-termini through a Lys branch (structure only in a drawing)
Relative Potency (EC50), proliferation of murine 32D cells transfected with human mpl receptor: 3.5 log units of activity (1 unit is approximately 10-fold)

Molecule: IEGPTLRQWLAARAGGGIEGPTLRQWLAARA [TMP-(Gly)n-TMP, n = 3]
Relative Potency (EC50), proliferation of murine 32D cells transfected with human mpl receptor: 4 log units of activity (1 unit is approximately 10-fold)

Molecule: IEGPTLRQWLAARAGGGGGGIEGPTLRQWLAARA [TMP-(Gly)n-TMP, n = 6]
Relative Potency (EC50), proliferation of murine 32D cells transfected with human mpl receptor: 4 log units of activity (1 unit is approximately 10-fold)

Molecule: IEGPTLRQWLAARAIEGPTLRQWLAARA [TMP-(Gly)n-TMP, n = 0]
Relative Potency (EC50), proliferation of murine 32D cells transfected with human mpl receptor: 4.5 log units of activity (1 unit is approximately 10-fold)

Now from value to molecule:

Relative Potency (EC50), proliferation of murine 32D cells transfected with human mpl receptor (scale: log units of activity): 4
Molecule: TMP-(Gly)n-TMP, n = 9 (peptide)

Relative Potency (EC50), proliferation of murine 32D cells transfected with human mpl receptor (scale: log units of activity): 4
Molecule: TMP-(Gly)n-TMP, n = 14 (peptide)

Relative Potency (EC50), proliferation of murine 32D cells transfected with human mpl receptor (scale: log units of activity): 4
Molecule: TMP-(Gly)n-TMP, n = 10 (peptide)

Relative Potency (EC50), proliferation of murine 32D cells transfected with human mpl receptor (scale: log units of activity): 4
Molecule: TPO (ligand)

Relative Potency (EC50), proliferation of murine 32D cells transfected with human mpl receptor: 4.5 log units of activity (1 unit is approximately 10-fold)
Molecule: IEGPTLRQWLAARAGGGGGGGGIEGPTLRQWLAARA [TMP-(Gly)n-TMP, n = 8]

Relative Potency (EC50), proliferation of murine 32D cells transfected with human mpl receptor: 4 log units of activity (1 unit is approximately 10-fold)
B1: peptide 22 (dimer of a dimer, oxidised peptide 18) (peptide)
peptide: IEGPTLRQWLAARAGGGCGGGGIEGPTLRQWLAARA
modifications: also: homodimer: intermolecular disulfide between the linker Cys18 of two chains

Relative Potency (EC50), proliferation of murine 32D cells transfected with human mpl receptor: 4 log units of activity (1 unit is approximately 10-fold)
Molecule: IEGPTLRQWLAARAGGGCGGGGIEGPTLRQWLAARA [TMP-GGGCGGGG-TMP (SEQ ID NO. 16)]

Relative Potency (EC50), proliferation of murine 32D cells transfected with human mpl receptor: 4 log units of activity (1 unit is approximately 10-fold)
Molecule: IEGPTLRQWLAARAGGGKGGGGIEGPTLRQWLAARA [TMP-GGGKGGGG-TMP (SEQ ID NO. 14)]

Relative Potency (EC50), proliferation of murine 32D cells transfected with human mpl receptor: 5 log units of activity (1 unit is approximately 10-fold)
Molecule: IEGPTLRQWLAARAGGGKGGGGIEGPTLRQWLAARA (not fully specified (residue 18)) [TMP-GGGK(PEG)GGGG-TMP (SEQ ID NO. 17)]

Relative Potency (EC50), proliferation of murine 32D cells transfected with human mpl receptor: 4 log units of activity (1 unit is approximately 10-fold)
Molecule: IEGPTLRQWLAARAGGGNGSGGIEGPTLRQWLAARA [TMP-GGGNGSGG-TMP (SEQ ID NO. 19)]

Relative Potency (EC50), proliferation of murine 32D cells transfected with human mpl receptor: 4 log units of activity (1 unit is approximately 10-fold)
Molecule: IEGPTLRQWLAARAGGGGGGGIEGPTLRQWLAARA [TMP-(Gly)n-TMP, n = 7]

Relative Potency (EC50), proliferation of murine 32D cells transfected with human mpl receptor: 5 log units of activity (1 unit is approximately 10-fold)
Molecule: IEGPTLRQWLAARAGGGC([maleimide-mPEG 5 kDa])GGGGIEGPTLRQWLAARA [TMP-GGGC(PEG)GGGG-TMP (SEQ ID NO. 18)]

Relative Potency (EC50), proliferation of murine 32D cells transfected with human mpl receptor: 3 log units of activity (1 unit is approximately 10-fold)
Molecule: IEGPTLRQWLAARAGPNGIEGPTLRQWLAARA [TMP-GPNG-TMP (SEQ ID NO. 10)]
